Results on 15 molecules are retold here after patent publication US20230346885A1 (published 2023).

T1: CT45A1 peptide on HLA (human)
T1 peptide: SLIAGSAMSKA

T2: CLDN6 peptide on HLA (human)
T2 peptide: TLIPVCWTA

T3: CT45A1 peptide on HLA (human)
T3 peptide: KIFEMLEGV

T4: CLDN6 peptide on HLA (human)
T4 peptide: VLTSGIVFV

T5: CT45A1 peptide on HLA (human)
T5 peptide: KLVKELRCV

B1: TCR of SEQ ID NOs 345 and 346 (TCR, V domains shown)
Valpha: KQEVTQIPAALSVPEGENLVLNCSFTDSAIYNLQWFRQDPGKGLTSLLLIQSSQREQTSGRLNASLDKSSGRSTLYIAASQPGDSATYLCAVRGYQKVTFGTGTKLQVIP
Vbeta: NAGVTQTPKFQVLKTGQSMTLQCAQDMNHNSMYWYRQDPGMGLRLIYYSASEGTTDKGEVPNGYNVSRLNKREFSLRLESAAPSQTSVYFCASSEASGLRSPLHFGNGTRLTVT
B2: TCR of SEQ ID NOs 343 and 344 (TCR, V domains shown)
Valpha: QKEVEQNSGPLSVPEGAIASLNCTYSDRGSQSFFWYRQYSGKSPELIMFIYSNGDKEDGRFTAQLNKASQYVSLLIRDSQPSDSATYLCAVGGAGGYQKVTFGTGTKLQVIP
Vbeta: NAGVTQTPKFQVLKTGQSMTLQCAQDMNHEYMSWYRQDPGMGLRLIHYSVGAGITDQGEVPNGYNVSRSTTEDFPLRLLSAAPSQTSVYFCASSYSGNEQYFGPGTRLTVT
B3: TCR of SEQ ID NOs 341 and 342 (TCR, V domains shown)
Valpha: QKEVEQNSGPLSVPEGAIASLNCTYSDRGSQSFFWYRQYSGKSPELIMFIYSNGDKEDGRFTAQLNKASQYVSLLIRDSQPSDSATYLCAVGTSYDKVIFGPGTSLSVIP
Vbeta: NAGVTQTPKFQVLKTGQSMTLQCAQDMNHEYMSWYRQDPGMGLRLIHYSVGAGITDQGEVPNGYNVSRSTTEDFPLRLLSAAPSQTSVYFCASSYGGGSGYTFGSGTRLTVV
B4: TCR of SEQ ID NOs 331 and 332 (TCR, V domains shown)
Valpha: KQEVTQIPAALSVPEGENLVLNCSFTDSAIYNLQWFRQDPGKGLTSLLLIQSSQREQTSGRLNASLDKSSGRSTLYIAASQPGDSATYLCAAKAAGNKLTFGGGTRVLVKP
Vbeta: NAGVTQTPKFQVLKTGQSMTLQCAQDMNHNSMYWYRQDPGMGLRLIYYSASEGTTDKGEVPNGYNVSRLNKREFSLRLESAAPSQTSVYFCASSESLGVTGTAFFGQGTRLTVV
B5: TCR of SEQ ID NOs 333 and 334 (TCR, V domains shown)
Valpha: KQEVTQIPAALSVPEGENLVLNCSFTDSAIYNLQWFRQDPGKGLTSLLLIQSSQREQTSGRLNASLDKSSGRSTLYIAASQPGDSATYLCAVKKDAGNKLTFGGGTRVLVKP
Vbeta: NAGVTQTPKFQVLKTGQSMTLQCAQDMNHNSMYWYRQDPGMGLRLIYYSASEGTTDKGEVPNGYNVSRLNKREFPLRLLSAAPSQTSVYFCASSRRLGASSEAFFGQGTRLTVV
B6: TCR of SEQ ID NOs 329 and 330 (TCR, V domains shown)
Valpha: KQEVTQIPAALSVPEGENLVLNCSFTDSAIYNLQWFRQDPGKGLTSLLLIQSSQREQTSGRLNASLDKSSGRSTLYIAASQPGDSATYLCAVQGYGTALIFGKGTTLSVSS
Vbeta: NAGVTQTPKFQVLKTGQSMTLQCAQDMNHEYMSWYRQDPGMGLRLIHYSVGAGITDQGEVPNGYNVSRSTTEDFPLRLLSAAPSQTSVYFCASSQGPYMNTEAFFGQGTRLTVV
B7: TCR of SEQ ID NOs 357 and 358 (TCR, V domains shown)
Valpha: KQEVTQIPAALSVPEGENLVLNCSFTDSAIYNLQWFRQDPGKGLTSLLLIQSSQREQTSGRLNASLDKSSGRSTLYIAASQPGDSATYLCAVKVWSNTGKLIFGQGTTLQVKP
Vbeta: NAGVTQTPKFRILKIGQSMTLQCTQDMNHNYMYWYRQDPGMGLKLIYYSVGAGITDKGEVPNGYNVSRSTTEDFPLRLELAAPSQTSVYFCASSYEGDISYGYTFGFGTRLTVV
B8: TCR of SEQ ID NOs 355 and 356 (TCR, V domains shown)
Valpha: KQEVTQIPAALSVPEGENLVLNCSFTDSAIYNLQWFRQDPGKGLTSLLLIQSSQREQTSGRLNASLDKSSGRSTLYIAASQPGDSATYLCAVWRTTDSWGKLQFGAGTQVVVTP
Vbeta: NAGVTQTPKFRILKIGQSMTLQCTQDMNHNYMYWYRQDPGMGLKLIYYSVGAGITDKGEVPNGYNVSRSTTEDFPLRLLSAAPSQTSVYFCASSYGQGYGYTFGSGTRLTVV
B9: TCR of SEQ ID NOs 353 and 354 (TCR, V domains shown)
Valpha: QKEVEQNSGPLSVPEGAIASLNCTYSDRGSQSFFWYRQYSGKSPELIMSIYSNGDKEDGRFTAQLNKASQYVSLLIRDSQPSDSATYLCAVNYRGALTFGSGTRLQVQP
Vbeta: NAGVTQTPKFRILKIGQSMTLQCTQDMNHNYMYWYRQDPGMGLKLIYYSVGAGITDQGEVPNGYNVSRSTTEDFPLRLLSAAPSQTSVYFCASSYLRTGGNYGYTFGSGTRLTVV
B10: TCR of SEQ ID NOs 337 and 338 (TCR, V domains shown)
Valpha: KQEVTQIPAALSVPEGENLVLNCSFTDSAIYNLQWFRQDPGKGLTSLLLIQSSQREQTSGRLNASLDKSSGRSTLYIAASQPGDSATYLCAVRHNQGGKLIFGQGTELSVKP
Vbeta: NAGVTQTPKFRVLKTGQSMTLLCAQDMNHEYMYWYRQDPGMGLRLIHYSVGAGITDQGEVPNGYNVSRLNKREFSLRLESAAPSQTSVYFCASSDRGVYEQYFGPGTRLTVT
B11: TCR of SEQ ID NOs 335 and 336 (TCR, V domains shown)
Valpha: KQEVTQIPAALSVPEGENLVLNCSFTDSAIYNLQWFRQDPGKGLTSLLLIQSSQREQTSGRLNASLDKSSGRSTLYIAASQPGDSATYLCAVRHLSNDYKLSFGAGTTVTVRA
Vbeta: NAGVTQTPKFQVLKTGQSMTLQCAQDMNHEYMSWYRQDPGMGLRLIHYSVGAGITDQGEVPNGYNVSRSTTEDFPLRLLSAAPSQTSVYFCASKRGFDEGSPLHFGNGTRLTVT
B12: TCR of SEQ ID NOs 339 and 340 (TCR, V domains shown)
Valpha: KQEVTQIPAALSVPEGENLVLNCSFTDSAIYNLQWFRQDPGKGLTSLLLIQSSQREQTSGRLNASLDKSSGRSTLYIAASQPGDSATYLCAVRPLGGGYQKVTFGTGTKLQVIP
Vbeta: NAGVTQTPKFRVLKTGQSMTLQCAQDMNHNSMYWYRQDPGMGLRLIYYSASEGTTDKGEVPNGYNVSRLNKREFSLRLESAAPSQTSVYFCASSDTGTSVTGELFFGEGSRLTVL
B13: TCR of SEQ ID NOs 347 and 348 (TCR, V domains shown)
Valpha: KQEVTQIPAALSVPEGENLVLNCSFTDSAIYNLQWFRQDPGKGLTSLLLIQSSQREQTSGRLNASLDKSSGRSTLYIAASQPGDSATYLCAVRTTDSWGKLQFGAGTPVVVTP
Vbeta: NAGVTQTPKFQVLKIGQSMTLQCTQDMNHNYMYWYRQDPGMGLKLIYYSVGAGITDKGEVPNGYNVSRSTTEDFPLRLELAAPSQTSVYFCASSSPLGKQYFGPGTRLTVL
B14: TCR of SEQ ID NOs 351 and 352 (TCR, V domains shown)
Valpha: KQEVTQIPVALSVPEGENLVLNCSFTDSAIYNLQWFRQDPGKGLTSLLLIQSSQREQTSGRLNASLDKSSGRSTLYIAASQPGDSATYLCALRGEADSWGKLQFGAGTQVVVTP
Vbeta: NAGVTQTPKFQVLKTGQSMTLQCAQDMNHNYMYWYRQDPGMGLKLIYYSVGAGITDKGEVPNGYNVSRSTTEDFPLRLELAAPSQTSVYFCASSSPLGEQYFGPGTRLTVT
B15: TCR of SEQ ID NOs 349 and 350 (TCR, V domains shown)
Valpha: KQEVTQIPAALSVPEGENLVLNCSFTDSAIYNLQWFRQDPGKGLTSLLLIQSSQREQTSGRLNASLDKSSGRSTLYIAASQPGDSATYLCAVTNAGKSTFGDGTTLTVKP
Vbeta: NAGVTQTPKFQVLKTGQSMTLQCAQDMNHEYMSWYRQDPGMGLRLIHYSVGAGITDQGEVPNGYNVSRSTTEDFPLRLESAAPSQTSVYFCASSEVPGPYGYTFGSGTRLTVV

One assay deals with T1, CT45A1 peptide on HLA. The assay is described as follows: binding, other.
On to B1, for which the binding result was “recognises”. On the same count and under the same terms, under B2 stands “recognises”; under B3, “recognises”.

Another assay addresses T2, CLDN6 peptide on HLA. The assay is described as follows: binding, other.
As for B4, the binding result is listed as “recognises”.

Regarding B5, the binding result is recorded as “recognises”. Turning to B6, the binding result is listed as “recognises”.

A further assay deals with T3, CT45A1 peptide on HLA. The assay is described as follows: binding, other.
B7: the binding result is reported as “recognises”. For B8, the binding result is “recognises”. As to B9, the binding result is given as “recognises”.

The target of the next assay is T4, CLDN6 peptide on HLA. The experiment in a line: binding, other.
Take B10: the binding result is listed as “recognises”. Same read-out and setting: under B11 stands “recognises”; under B12, “recognises”.

The target in a further assay is T5, CT45A1 peptide on HLA. The experiment in a line: binding, other.
As to B13, the binding result was “recognises”. B14: the binding result is on record as “recognises”.

Regarding B15, the binding result is reported as “recognises”.
